# Laboratory results published in patent publication US20240352438A1, “MEANS AND METHODS FOR DETOXIFYING OCHRATOXIN A” (DSM Austria GmbH, priority 2021, published 2024).
# Numbering of substitutions follows the chain as printed.
# B1: 51 (protein)
# chain: MTTRTRILTAFLSLLAANACAADAAPAAPHTVVLRAARMFDGASGKLVDHPQLTIVGNKIVRIAQGDKAEVPAGAEVVDLGDATLLPGFIDAHVHLSGQSSDNWYGDFFDNMMRFPAEQALYGAYYARITLEAGFTSVRDVGSTDWVALGLRNAIDAGKVPGPRMLVSNYGVGSTGGHADQDPIPPHKLPLAGPLQGVCNGPEECRAAVRYQIKYGANVIKFMPSGGVLSLSDPVDAPELSQDEMNAVIGESHAWGRKVAAHAHGDKAAKMAVAAGVDSIEHGSFIEDDTLRAMKAKNVYLVPTISAIAHVEEKIGTFPPVIAEKGRAAAAHLRQTFRHAVQIGVPIALGTDAGVGAHGSNAREFRYMVENGLTPAQALLAGTANAARLLGTFDRVGTLEAGKLADVVAVPGNPIADITVTERPLFVMKDGVVVRRDAVR
# modifications: exemplary polypeptide
# B2: 56 (protein)
# chain: B1 chain with G171A, L229M
# modifications: exemplary polypeptide
# B3: 55 (protein)
# chain: B1 chain with G171A, L229V
# modifications: exemplary polypeptide
# B4: 53 (protein)
# chain: B1 chain with G171A, P183S
# modifications: exemplary polypeptide
# B5: 58 (protein)
# chain: B1 chain with G171A, A307G
# modifications: exemplary polypeptide
# B6: 66 (protein)
# chain: B1 chain with G171A, V311A
# modifications: exemplary polypeptide
# B7: 64 (protein)
# chain: B1 chain with S143E, G171A
# modifications: exemplary polypeptide
# B8: 61 (protein)
# chain: B1 chain with G171A, V355T
# modifications: exemplary polypeptide
# B9: 60 (protein)
# chain: B1 chain with G171A, V311T
# modifications: exemplary polypeptide
# B10: 54 (protein)
# chain: B1 chain with G171A, V228A
# modifications: exemplary polypeptide
# B11: 59 (protein)
# chain: B1 chain with G171A, I308V
# modifications: exemplary polypeptide
# B12: 57 (protein)
# chain: B1 chain with G171A, A307S
# modifications: exemplary polypeptide
# B13: 52 (protein)
# chain: B1 chain with G171A, P183G
# modifications: exemplary polypeptide
# B14: 62 (protein)
# chain: B1 chain with G171A, V235P
# modifications: exemplary polypeptide
# B15: 63 (protein)
# chain: B1 chain with G171A, E239Q
# modifications: exemplary polypeptide
# B16: 46 (protein)
# chain: MYSLAIRNGIVFDGEKFIGKTNIYVDGDKIVKITNERLDAKEEVNAEGYFVMPGLIDAHLHLTGIRGGSLLMGYLLDDPRTRLLRAANWARELLMAGFTTVRDCGEPNSIILRNAINEGIIPGPRIIAAGSPITQTFGHAELSHSLPLEWSIQLGFGEICDGVDECIKAARKVLRSGADFIKIMATGGVLSERDRPEWPQLTPEEMSAIVREAEKVGTYVAAHAHGDKGARIAVEAGVRTIEHGSLITEETVKLMAEKGVSLTPTLSIQELIYKHGKQMGIDPWGLEKIGQVREGVINSIKLARKYGVMILAGTDLGFKTGLDIDMGKNWVEVKLLVELGGLSSEEALRAATGNASKMLRLNTGIIREGYLADIVLINGNPLENINDIARVSTVIKGGKVTVENGKLI
# modifications: exemplary polypeptide
# B17: 37 (protein)
# chain: B16 chain with E106G, H275Y
# modifications: exemplary polypeptide
# B18: 35 (protein)
# chain: B16 chain with I65G, H275Y
# modifications: exemplary polypeptide
# B19: 36 (protein)
# chain: B16 chain with I65A, H275Y
# modifications: exemplary polypeptide
# B20: 47 (protein)
# chain: B16 chain with I65A, E106G, P132A, I268A, Q269I, I272V, H275V, F318V
# modifications: exemplary polypeptide
# B21: 38 (protein)
# chain: B16 chain with E106S, H275Y
# modifications: exemplary polypeptide
# Test: Thermostability assay: residual OTA detoxification activity after 10 min incubation at 45-99° C. (T50)
# Assay type: physicochemical
# Conditions: 0.1 mg/mL protein in 20 mM Tris-HCl pH 7.5, residual OTA detoxification activity relative to 4° C. reference aliquot
# Outline: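 T50 marks the temperature range at which half the starting OTA-detoxifying activity is lost, versus an unheated 4 °C reference. Samples were 0.1 mg/mL purified protein in 20 mM Tris-HCl pH 7.5, exposed for 10 min to 45, 55, 65, 75, 80, 85, 90, 95 or 99 °C.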
row,Molecule,T50 (temperature at which 50% of the initial activity was maintained)
1,B1,68-70 °C
2,B2,66-68 °C
3,B3,64-66 °C
4,B4,<63.2 °C
5,B5,72 °C
6,B6,65.3-66.9 °C
7,B7,63-64 °C
8,B8,66-68 °C
9,B9,66-68 °C
10,B10,<63.2 °C
11,B11,68-70 °C
12,B12,68-70 °C
13,B13,<63.2 °C
14,B14,63-64 °C
15,B15,72-74 °C
16,B16,>99 °C
17,B17,>99 °C
18,B18,99 °C
19,B19,99 °C
20,B20,>99 °C
21,B21,>99 °C

# Test: OTA detoxification activity assay (specific activity, fluorescence reduction ex/em 390/450 nm)
# Assay type: biochemical
# Conditions: pH 6.0; SEQ ID NO: 1 = 100%
# Outline: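 Recombinant enzyme preparation with 200 ng/mL OTA in 100 mM sodium phosphate, at pH 6.0 and pH 7.5, 37° C. Degradation followed as the fall in fluorescence at ex/em 390/450 nm. Specific activity taken from the initial linear slope; one unit degrades 1 μmol OTA per min at a starting OTA of […].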
row,Molecule,"Specific OTA detoxification activities in % compared to the enzyme of SEQ ID NO: 1, pH 6.0 [%]"
1,B1,46
2,B2,32
3,B3,27
4,B4,64
5,B5,6
6,B6,15
7,B7,36
8,B8,15
9,B9,23
10,B10,33
11,B11,69
12,B12,15
13,B13,16
14,B14,35
15,B15,43

# Same assay, conditions: pH 6.0; SEQ ID NO: 2 = 100%
row,Molecule,"Specific OTA detoxification activities in % compared to the enzyme of SEQ ID NO: 2, pH 6.0 [%]"
1,B16,82.00
2,B17,42.00
3,B18,56.00
4,B19,117.00
5,B20,85.00
6,B21,11.00

# Same assay, conditions: pH 7.5; SEQ ID NO: 1 = 100%
row,Molecule,"Specific OTA detoxification activities in % compared to the enzyme of SEQ ID NO: 1, pH 7.5 [%]"
1,B1,140
2,B2,87
3,B3,54
4,B4,100
5,B5,8
6,B6,15
7,B7,146
8,B8,34
9,B9,61
10,B10,40
11,B11,333
12,B12,16
13,B13,44
14,B14,26
15,B15,112

# Same assay, conditions: pH 7.5; SEQ ID NO: 2 = 100%
row,Molecule,"Specific OTA detoxification activities in % compared to the enzyme of SEQ ID NO: 2, pH 7.5 [%]"
1,B16,66.00
2,B17,187.00
3,B18,136.00
4,B19,309.00
5,B20,267.00
6,B21,53.00
